Measurements reported in the supplement of paper PMC12042874.
± gives the uncertainty stated by the source.

Test: amyloid nucleation score (Sup35N fusion, yeast selection) (log enrichment); library NNK1; higher = more nucleation; inactive = no reads after selection
Method in brief: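 In psi-negative yeast, Sup35N fusions carrying peptides of 20 random codons were induced with 100 μM copper sulfate for 24 hours. The cells then grew 7 days at 30°C on medium lacking adenine and uracil, and plasmid inserts from input and output were Illumina-sequenced, excluding sequences with under 100 input reads. Nucleation score is the DiMSum log enrichment of output over input reads, centred on the mode score of non-aggregating sequences.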

Going from FWGFVGTVMLLKCVFHGVSA to FWIFRVLSINANTELSWDIV, the amyloid nucleation score falls from 0.628 ± 0.63 to -0.631 ± 0.32.

FWTRCVFLLRGNSMWESCRG and FWVGP are within error of each other in amyloid nucleation score: -0.385 ± 0.9 for the first, -0.217 ± 0.51 for the second.

FYEIY and FYFRPNDQSWYVTRLFLSPA are within error of each other in amyloid nucleation score: 0.021 ± 0.93 for the first, 0.491 ± 0.93 for the second.

First: FYIFCDDFTGCS
Second: FYISNMM
The amyloid nucleation score of the first is higher: 1.84 ± 0.11 for the first, -1.35 ± 0.74 for the second.

FYLFVMKDASILYLVCSFSF and FYLHNICVRR are within error of each other in amyloid nucleation score: -0.46 ± 0.4 for the first, -0.249 ± 0.52 for the second.

First: FYQYVKCVIVPSVDALGVFS
Second: FYRFLQPMS
The amyloid nucleation score of the first is higher: 0.931 ± 0.2 for the first, -0.809 ± 0.88 for the second.

FYRQFHHLGEDPLH and FYVGDVITHHWEAELNYSDV are within error of each other in amyloid nucleation score: -0.583 ± 0.53 for the first, -0.573 ± 1.7 for the second.

First: GACECDGYVTWCLRGIFGAK
Second: GACHLGDDYFRSSVVVTKSA
The amyloid nucleation score of the first is lower: -1.41 ± 0.94 for the first, 0.232 ± 0.39 for the second.

GAGHGELDKWNPSDGPQLLW and GAQATFEVHCLERTVWVYR are within error of each other in amyloid nucleation score: -0.096 ± 0.77 for the first, -0.691 ± 1.4 for the second.

GASAEEIYCQP and GASRVTNYRELLMASANHDG are within error of each other in amyloid nucleation score: -0.513 ± 0.34 for the first, -0.413 ± 0.45 for the second.

Compared with GAVCLGQIMCSRVPRDVNVK, GAVPDPKVVGMGFQMGAVNS is higher in amyloid nucleation score: -0.547 ± 0.49 for the first, 0.877 ± 0.7 for the second.

First: GDCTLVMLINE
Second: GDFLIPRARDQFYRFSGFND
The amyloid nucleation score of the first is lower: 0.011 ± 0.28 for the first, 0.863 ± 0.46 for the second.

GDFSGSDVHLSFLF and GDHFPEDGYSLEIADR are within error of each other in amyloid nucleation score: 0.541 ± 0.4 for the first, -0.737 ± 1.2 for the second.

GDQSM and GEDVFVRSNELRN are within error of each other in amyloid nucleation score: 0.262 ± 0.31 for the first, 0.338 ± 0.38 for the second.

GEIEHHLRYVQCYFRRAVRL and GEIGNIPLMKRRTEWQFVVA are within error of each other in amyloid nucleation score: 0.319 ± 0.33 for the first, 0.25 ± 0.47 for the second.

GEKCGSVPGHQLGTDILSRA and GERDACYPKSLD are within error of each other in amyloid nucleation score: 0.819 ± 0.67 for the first, -1.06 ± 2.4 for the second.

Compared with GESHPFNVFRYCL, GFAFSNVCIVAYYRYFSSRR is higher in amyloid nucleation score: 1.42 ± 0.14 for the first, 3.26 ± 0.15 for the second.

Compared with GFARLLLRRVHRAIISHFRF, GFFDSCLEMFTLSTYFCTFY is higher in amyloid nucleation score: -0.617 ± 0.45 for the first, 2.86 ± 0.096 for the second.

First: GFFLI
Second: GFFPGHHSFLEATSLVSSLF
The amyloid nucleation score of the first is lower: -0.007 ± 0.21 for the first, 1.4 ± 0.63 for the second.

Compared with GFLDVALTLSWANHRGDSSV, GFNLSRTAMMICFGYFTA is higher in amyloid nucleation score: 3.04 ± 0.13 for the first, 6.61 ± 0.073 for the second.

Going from GFNMLC to GFRFW, the amyloid nucleation score rises from 0.224 ± 0.5 to 2.96 ± 0.11.

First: GFRYEPNWSLSFPGV
Second: GFSNLNSYD
The amyloid nucleation score of the first is higher: 0.214 ± 0.41 for the first, -0.55 ± 0.3 for the second.

GFYFSYSWVRRSRNSKSMAS and GFYIDDYES are within error of each other in amyloid nucleation score: 0.418 ± 1 for the first, -1.39 ± 2.7 for the second.

GGFAILNAREEHWGLKGSSM and GGGEATLREFFKECGK are within error of each other in amyloid nucleation score: -0.491 ± 0.55 for the first, -0.603 ± 0.35 for the second.

GGGQAELEGR and GGIRRHTHGI are within error of each other in amyloid nucleation score: 0.365 ± 0.45 for the first, -0.746 ± 1.4 for the second.

GGRLRW and GGVFMMSSDSTQIIRYVKSR are within error of each other in amyloid nucleation score: 0.452 ± 0.48 for the first, 0.752 ± 0.56 for the second.

GHLCSLSSGFN and GHSLHLWVTTKS are within error of each other in amyloid nucleation score: 0.69 ± 0.24 for the first, 0.561 ± 0.66 for the second.

GHVRFSMHRRSDVCKQGSND and GHWPQRCIMVVECYQRQAHK are within error of each other in amyloid nucleation score: 0.91 ± 0.47 for the first, 0.115 ± 0.65 for the second.

Going from GIAVGS to GICELQRPTYVTLVEVFMVD, the amyloid nucleation score falls from 0.413 ± 0.49 to -0.49 ± 0.41.

First: GICHSPGWCC
Second: GIDVCWSFFILYVWERVIRG
The amyloid nucleation score of the first is higher: 2.69 ± 0.14 for the first, 0.337 ± 0.36 for the second.

Compared with GIENLRTDV, GIGAVSAC is lower in amyloid nucleation score: 1.34 ± 0.37 for the first, 0.317 ± 0.56 for the second.

GIHNFEGGMTLWLLLFSQRS and GIIRKVLAEANLNCKVSSYR are within error of each other in amyloid nucleation score: 0.24 ± 1.2 for the first, -0.488 ± 0.61 for the second.

GILFALSIVRDDYFC and GIPCT are within error of each other in amyloid nucleation score: -0.215 ± 0.19 for the first, 0.38 ± 0.72 for the second.

GISSSTLTFRTMWEDRCVEG and GIVCYKCSVDFLLSWLSVVF are within error of each other in amyloid nucleation score: 0.825 ± 0.66 for the first, -0.092 ± 0.31 for the second.

GKCMYRVCYSEA and GKEDRIG are within error of each other in amyloid nucleation score: -0.056 ± 0.46 for the first, -0.093 ± 0.81 for the second.

GKFRYHGRAMRHSARALIYF and GKFSDSHIVA are within error of each other in amyloid nucleation score: 0.451 ± 0.42 for the first, 0.308 ± 0.46 for the second.

GKVIQHG and GKYKTFKNNITP are within error of each other in amyloid nucleation score: -0.579 ± 1.7 for the first, -0.416 ± 1.2 for the second.

GLASVRILGRMQV and GLDKALTFKALCDLLRNSLC are within error of each other in amyloid nucleation score: -0.106 ± 0.36 for the first, 0.598 ± 1.2 for the second.

GLFKICYLVT and GLFMGWYDRMP are within error of each other in amyloid nucleation score: 0.408 ± 0.34 for the first, 0.265 ± 0.6 for the second.

GLGVIVVCPVCGSKGVCGKW and GLGYPSVFSEHCVGLRDCEL are within error of each other in amyloid nucleation score: -0.914 ± 1.4 for the first, -0.189 ± 1.7 for the second.

In the case of FYHFALFGVCARVPSDLACV, the amyloid nucleation score is reported as “inactive”.
With GDIFSVQQPSNHQLETLKYS the amyloid nucleation score was “inactive”.
In the case of GGPQLKVCSFGLFWWFIEVV, the amyloid nucleation score is reported as “inactive”.
For GGVLLRCRTSDNTGNQRVW, the amyloid nucleation score was “inactive”.
For GHWSYYKVTSYYI, the amyloid nucleation score was “inactive”.
In the case of GIRFLWPFLIPRLHKVIARR, the amyloid nucleation score is reported as “inactive”.
For GIRVFPMCNFG, the amyloid nucleation score was “inactive”.
With GIVFIIQYS the amyloid nucleation score was “inactive”.
